According to patent JP2004000045A (dated 2004):

What was measured:
[1] = target: T1, ヒト前立腺特異的膜抗原(PSMA) (human, UniProt Q04609 1-750); assay: flow cytometry, 10 μg/mL, Namalwa KJM-1 cells transfected with PSMA cDNA (pAMoPSMA)
T1 construct: whole, on cells; also called PSMA; ヒトPSMA

[2] = target: T1, ヒト前立腺特異的膜抗原(PSMA); assay: flow cytometry, 10 μg/mL, LNCaP cells

T1 sequence (Q04609 whole entry): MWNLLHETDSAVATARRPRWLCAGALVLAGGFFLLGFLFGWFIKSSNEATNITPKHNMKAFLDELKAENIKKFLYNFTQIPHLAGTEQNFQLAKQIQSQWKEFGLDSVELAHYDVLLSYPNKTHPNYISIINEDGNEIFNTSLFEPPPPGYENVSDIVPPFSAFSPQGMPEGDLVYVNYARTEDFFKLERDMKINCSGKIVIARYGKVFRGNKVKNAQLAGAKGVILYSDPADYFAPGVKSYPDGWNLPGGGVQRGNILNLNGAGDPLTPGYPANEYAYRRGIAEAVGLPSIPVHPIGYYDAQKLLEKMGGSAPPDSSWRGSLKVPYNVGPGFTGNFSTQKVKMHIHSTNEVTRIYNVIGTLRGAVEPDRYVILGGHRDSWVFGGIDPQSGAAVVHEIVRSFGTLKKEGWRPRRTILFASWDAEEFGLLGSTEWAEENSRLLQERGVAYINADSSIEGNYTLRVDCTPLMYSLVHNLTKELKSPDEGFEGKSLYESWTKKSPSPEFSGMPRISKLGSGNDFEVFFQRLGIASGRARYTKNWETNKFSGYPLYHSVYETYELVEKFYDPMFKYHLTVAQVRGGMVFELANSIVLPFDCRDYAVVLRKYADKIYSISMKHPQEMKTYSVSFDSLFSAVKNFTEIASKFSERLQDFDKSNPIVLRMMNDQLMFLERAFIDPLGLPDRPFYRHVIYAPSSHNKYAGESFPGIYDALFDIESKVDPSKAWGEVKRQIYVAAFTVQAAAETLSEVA

Binder | binding result [1] | binding result [2]
抗PSMAマウス抗体2C9 (antibody, V domains shown, Whole mouse antibody from hybridoma; also called マウスモノクローナル抗体2C9; 2C9) VH: DVHLQESGPGLVKPSQSLSLTCTVTGYSITSDYAWNWIRQFPGNKLEWMGYISFSGSTSYNPSLKSRISVTRDTSKNQFFLQLNSVTTEDTATYYCARWNYYGSSHVWFAYWGQGTLVTVSA VL: DIKMTQSPSSMYASLGERVTITCKASQDIYSYLIWFQQKPGKSPKTLIYRANRLVDGVPSRFSGSGSGQDYSLTISSLEYEDMGIYYCLQYDEFATFGSGTKLEMKR | binds | 
抗PSMAキメラ抗体KM2777 (antibody, human IgG1, V domains shown, Human-type chimeric antibody: 2C9 VH joined to human IgG1 CH and 2C9 VL joined to human kappa CL (vector pKANTEX93), produced in YB2/0 cells; also called KM2777; 抗PSMAヒト型キメラ抗体) VH: DVHLQESGPGLVKPSQSLSLTCTVTGYSITSDYAWNWIRQFPGNKLEWMGYISFSGSTSYNPSLKSRISVTRDTSKNQFFLQLNSVTTEDTATYYCARWNYYGSSHVWFAYWGQGTLVTVSA VL: DIKMTQSPSSMYASLGERVTITCKASQDIYSYLIWFQQKPGKSPKTLIYRANRLVDGVPSRFSGSGSGQDYSLTISSLEYEDMGIYYCLQYDEFATFGSGTKLEMKR |  | binds
アドリアマイシン結合抗PSMAキメラ抗体ADM−KM2777 (antibody, human IgG1, V domains shown, as for the heavy chain: linker on amino groups, sites not stated; adriamycin-(Gly-Pro)-PEG linker (PEG average MW about 2,000) coupled through NHS ester to amino groups of the antibody; on average 2.5 ADM per antibody molecule; sites not stated, also called ADM-KM2777) VH: DVHLQESGPGLVKPSQSLSLTCTVTGYSITSDYAWNWIRQFPGNKLEWMGYISFSGSTSYNPSLKSRISVTRDTSKNQFFLQLNSVTTEDTATYYCARWNYYGSSHVWFAYWGQGTLVTVSA VL: DIKMTQSPSSMYASLGERVTITCKASQDIYSYLIWFQQKPGKSPKTLIYRANRLVDGVPSRFSGSGSGQDYSLTISSLEYEDMGIYYCLQYDEFATFGSGTKLEMKR |  | binds
